How the values were obtained:
[1] = molecular target: HSP90 beta (full-length human, N-terminal HA tag) (human, UniProt P08238 1-724, phosphorylated (sites in Table S1)); assay: SEC-MALS
[2] = molecular target: T1, recombinant 14-3-3ζ, P63104; assay: cryo-EM structure; details: remark: other sources report otherwise
T1 chain: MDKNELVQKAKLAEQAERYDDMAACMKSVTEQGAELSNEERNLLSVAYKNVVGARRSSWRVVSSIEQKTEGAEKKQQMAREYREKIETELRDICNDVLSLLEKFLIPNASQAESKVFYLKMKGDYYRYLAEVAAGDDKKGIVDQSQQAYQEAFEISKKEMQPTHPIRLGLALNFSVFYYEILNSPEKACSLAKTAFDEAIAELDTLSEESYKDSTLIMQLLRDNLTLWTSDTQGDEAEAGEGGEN

Chain of HSP90 beta (full-length human, N-terminal HA tag) (P08238 whole entry): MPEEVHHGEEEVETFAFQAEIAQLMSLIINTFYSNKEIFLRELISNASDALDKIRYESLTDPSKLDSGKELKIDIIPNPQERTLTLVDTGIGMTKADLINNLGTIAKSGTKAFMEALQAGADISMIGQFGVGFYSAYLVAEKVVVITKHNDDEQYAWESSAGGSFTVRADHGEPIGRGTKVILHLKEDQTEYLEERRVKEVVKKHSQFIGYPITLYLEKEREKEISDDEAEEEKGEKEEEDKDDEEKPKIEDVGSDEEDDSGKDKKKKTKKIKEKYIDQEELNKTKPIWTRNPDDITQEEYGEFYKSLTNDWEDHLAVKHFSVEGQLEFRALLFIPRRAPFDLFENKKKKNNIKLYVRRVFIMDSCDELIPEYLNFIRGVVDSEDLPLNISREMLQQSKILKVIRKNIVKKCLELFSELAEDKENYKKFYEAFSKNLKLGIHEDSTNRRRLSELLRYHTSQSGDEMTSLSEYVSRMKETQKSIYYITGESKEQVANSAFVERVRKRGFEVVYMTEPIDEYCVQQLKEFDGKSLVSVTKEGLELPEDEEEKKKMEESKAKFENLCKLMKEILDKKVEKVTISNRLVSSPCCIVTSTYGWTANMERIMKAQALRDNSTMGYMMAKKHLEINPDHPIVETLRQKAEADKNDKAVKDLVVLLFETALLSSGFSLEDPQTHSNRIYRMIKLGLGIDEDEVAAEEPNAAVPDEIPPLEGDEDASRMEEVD

B1: CDC37 (full-length human, C-terminal Myc-DDK tag) (natural protein)
chain: MVDYSVWDHIEVSDDEDETHPNIDTASLFRWRHQARVERMEQFQKEKEELDRGCRECKRKVAECQRKLKELEVAEGGKAELERLQAEAQQLRKEERSWEQKLEEMRKKEKSMPWNVDTLSKDGFSKSMVNTKPEKTEEDSEEVREQKHKTFVEKYEKQIKHFGMLRRWDDSQKYLSDNVHLVCEETANYLVIWCIDLEVEEKCALMEQVAHQTIVMQFILELAKSLKVDPRACFRQFFTKIKTADRQYMEGFNDELEAFKERVRGRAKLRIEKAMKEYEEEERKKRLGPGGLDPVEVYESLPEELQKCFDVKDVQMLQDAISKMDPTDAKYHMQRCIDSGLWVPNSKASEAKEGEEAGPGDPLLEAVPKTGDEKDVSV
modifications: phosphoserine at S13 (seen in the cryo-EM map; further sites in Table S1)
[1]
  binding result: binds

B2: recombinant 14-3-3ζ, P63104 1-245 (natural protein)
chain: MDKNELVQKAKLAEQAERYDDMAACMKSVTEQGAELSNEERNLLSVAYKNVVGARRSSWRVVSSIEQKTEGAEKKQQMAREYREKIETELRDICNDVLSLLEKFLIPNASQAESKVFYLKMKGDYYRYLAEVAAGDDKKGIVDQSQQAYQEAFEISKKEMQPTHPIRLGLALNFSVFYYEILNSPEKACSLAKTAFDEAIAELDTLSEESYKDSTLIMQLLRDNLTLWTSDTQGDEAEAGEGGEN
[2]
  stoichiometry N: 2
